# In patent US20110088129A1:
# Assays:
# [1] = biological target: binding sites in brush border membrane vesicles (BBMV) from midguts of last instar Helicoverpa armigera larvae (Helicoverpa armigera); test: homologous competition on H. armigera BBMV
# [2] = biological target: binding sites in brush border membrane vesicles (BBMV) from midguts of last instar Helicoverpa zea larvae (Helicoverpa zea); test: homologous competition on H. zea BBMV
# [3] = biological target: binding sites in brush border membrane vesicles (BBMV) from midguts of last instar Helicoverpa armigera larvae (Helicoverpa armigera); test: direct saturation assay, increasing 125I-Cry2Ab on fixed H. armigera BBMV (0.2 mg/ml)
# [4] = biological target: binding sites in brush border membrane vesicles (BBMV) from midguts of last instar Helicoverpa zea larvae (Helicoverpa zea); test: homologous competition, 125I-Cry2Ab on H. zea BBMV, LIGAND program
# [5] = biological target: binding sites in brush border membrane vesicles (BBMV) from midguts of last instar Helicoverpa armigera larvae (Helicoverpa armigera); test: homologous competition, 125I-Cry2Ab on H. armigera BBMV, LIGAND program
binder,measurement,setting,value
"Cry2Ab toxin (trypsin-activated Cry2Ab2 from recombinant B. thuringiensis strain BtIPS78/11) (ligand, 125I label (chloramine T method) where used as the labelled ligand) NAVPLSITSSVNTMQQLFLNRLPQFQMQGYQLLLLPLFAQAANLHLSFIRDVILNADEWGISAATLRTYRDYLKNYTRDYSNYCINTYQSAFKGLNTRLHDMLEFRTYMFLNVFEYVSIWSLFKYQSLLVSSGANLYASGSGPQQTQSFTSQDWPFLYSLFQVNSNYVLNGFSGARLSNTFPNIVGLPGSTTTHALLAARVNYSGGISSGDIGASPFNQNFNCSTFLPPLLTPFVRSWLDSGSDREGVATVTNWQTESFETTLGLRSGAFTARGNSNYFPDYFIRNISGVPLVVRNEDLRRPLHYNEIRNIASPSGTPGGARAYMVSVHNRKNNIHAVHENGSMIHLAPNDYTGFTISPIHATQVNNQTRTFISEKFGNQGDSLRFEQNNTTARYTLRGNGNSYNLYLRVSSIGNSTIRVTINGRVYTATNVNTTTNNDGVNDNGARFSDINIGNVVASSNSDVPLDINVTLNSGTQFDLMNIMLVPTNISPLY",fold difference in concentration of binding sites between Cry2Ab and Cry1Ac,[1],3 fold
same,fold higher Kd than Cry1Ac,[1],35 fold
same,fold difference in concentration of binding sites between Cry2Ab and Cry1Ac,[2],3 fold
same,fold higher Kd than Cry1Ac,[2],35 fold
same,concentration at which binding reached a maximum,[3],20 nM
same,concentration at which the saturation curve deviated from linearity,[3],5 nM
same,Kd,[4],5.9 nM
same,Rt (binding site concentration) (pmol/mg BBMV protein),[4],2.7
same,Kd,[5],3.1 nM
same,Rt (binding site concentration) (pmol/mg BBMV protein),[5],2.5
